According to patent US9969998B2, “Compositions of adenosine deaminase-2 (ADA2), variants thereof and methods of using same” (Halozyme, Inc., priority 2014, dated 2018):

Assays:
[1] = Heparin binding ELISA (heparin coated microtiter plate)
Summary of the method: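 Plates coated with 200 μg/mL heparin in Na2CO3 buffer pH 9.6 overnight at 4° C, then milk-blocked. FLAG-tagged rHuADA2 variants added at 3 μM for 2 h at room temperature. Bound protein detected with HRP-anti-FLAG and TMB, read as OD450.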

[2] = Kinetic assessment of adenosine deaminase activity (ammonia assay, Michaelis-Menten); assay type: biochemical; details: for Km / Vmax / kcat: [E] = 8.5 nM; for kcat: kcat=Vmax/0.0085/60
Summary of the method: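 Coupled ammonia assay: rHuADA2 WT or variants (1 μg/mL, 17 nM in 2× mix) with adenosine 20 μM–20 mM, α-ketoglutarate, NADPH and GDH, at pH 7.6 or pH 6.5 (PIPES), room temperature. Michaelis-Menten fit gave Km, Vmax, kcat, kcat/Km.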

[3] = Spectrophotometric adenosine deaminase assay at varying pH (pH optimum); assay type: biochemical
Description: Adenosine deaminase activity of rHuADA2 and variants at varying pH were assessed to determine the pH optimum of each. The adenosine deaminase activity was determined spectrophotometrically by direct measurement of changes in adenosine absorbance. […] During the deamination reaction, the absorbance of ADO decreases while that of INO increases with time. Since the dynamic changes in absorbance make it difficult to monitor activity at a single wavelength, the relative ADO activity was determined as a ratio of the ADO peak to isobestic point (i.e. the wavelength where ADO and INO have the same extinction coefficient). The isobestic point, which is 253 nm, remains unchanged and is concentration independent, so that it is the reference point to correct for volume or intensity discrepancies.
To construct the standard curve for ADO and INO, a series of solution mixtures in 0.001% Tween-20 containing different concentrations of ADO and INO were prepared. The total concentration of ADO and INO mix was 50 μM, in 1×PBS (10 mM phosphate, 137 mM NaCl, 2.7 mM KCl), pH 7.4. The samples were scanned with the wavelengths between 220 nm and 300 nm to determine the isosbestic point, where all spectra cross.
For performing the spectrophotometric adenosine deaminase assay of ADA2 and variants, a 2× solution containing 10 mM ADO in 100 mM potassium phosphate buffer (KPB), 0.1% Tween-20 at different pHs (i.e. 5.5, 6, 6.5, 6.75, 7, 7.25, 7.4, 7.75 and 8) were prepared. A separate 2× solution containing 2 μg/mL WT rHuADA2 or variants were prepared in the same 100 mM potassium phosphate buffer (KPB), 0.1% Tween-20 at the respective pH (i.e. 5.5, 6, 6.5, 6.75, 7, 7.25, 7.4, 7.75 and 8). An equal volume of the ADO solution and the ADA2 solution (wildtype or variants) were mixed to initiate reaction. At each time point (i.e. 1, 3, 5, 7, 9, 11, 13 and 15 min), a small aliquot (4 μl) was removed and diluted 50 times by adding to 196 μl 1×PBS, pH 7.4. The diluted samples were further diluted 2 fold (in duplicates) by adding 85 μl samples to 85 μl 1×PBS in a UV-transparent half area plate. The absorbance at 253 nm and 261 nm were measured of each diluted sample.
Adenosine concentration was determined using the A261/A253 ratio and the standard curve. Adenosine deaminase activity was measured by negative change in ADO concentration per min×100.

[4] = mouse, in vivo, iv, 7.5 mg/kg
Description: Fifty four (54) male BALB/c mice were divided into six (6) dosing groups, and were further divided into three (3) groups each for sampling of blood at different time points. Thus, the mice were randomized into eighteen (18) groups total. Mice were weighed prior to the start of the study, and randomized into the 18 groups based upon their body weights. In each sampling group, three groups of (3) mice were used for dosing each test article to prevent oversampling of the blood from the animals. For measurement of baseline ADA2 levels, a blood sample was obtained from 12 randomly chosen mice and plasma was prepared using the anti-coagulant potassium (K3) ethylene diamine tetraacetic acid (K3-EDTA). All blood was collected by submandibular venipuncture.
Each mouse was injected by intravenous tail-vein injection with a 7.5 mg/kg dose of one of six ADA2 test article as set forth in Table 24, i.e. rHuADA2-K374D (K371D by mature numbering), PEG-rHuADA2-K374D (PEG-K371D by mature numbering), rHuADA2-R23E (R20E by mature numbering), PEG-rHuADA2-R23E (PEG-R20E by mature numbering), or WT ADA2 and PEG-WT ADA2.
Blood was collected at designated sampling time points from appropriate groups of mice as indicated below in Table 24 and kept on ice until plasma preparation. Plasma was prepared by centrifuging the blood (500×g for 5 min at 4° C.), transferring the plasma to a fresh tube and immediately freezing at −80° C. until the adenosine deaminase activity assay. Adenosine deaminase activity was determined as described in Example 4. The half-life, or time taken for the activity of ADA2 proteins to be reduced by half, was calculated. Also, total exposure was measured by calculating the Area Under the Concentration-time Curve (AUC).

B1: K374D: ADA2 variant SEQ ID NO:20 (protein)
chain: IDETRAHLLLKEKMMRLGGRLVLNTKEELANERLMTLKIAEMKEAMRTLIFPPSMHFFQAKHLIERSQVFNILRMMPKGAALHLHDIGIVTMDWLVRNVTYRPHCHICFTPRGIMQFRFAHPTPRPSEKCSKWILLEDYRKRVQNVTEFDDSLLRNFTLVTQHPEVIYTNQNVVWSKFETIFFTISGLIHYAPVFRDYVFRSMQEFYEDNVLYMEIRARLLPVYELSGEHHDEEWSVKTYQEVAQKFVETHPEFIGIKIIYSDHRSKDVAVIAESIRMAMGLRIKFPTVVAGFDLVGHEDTGHSLHDYKEALMIPAKDGVKLPYFFHAGETDWQGTSIDRNILDALMLNTTRIGHGFALSKHPAVRTYSWDKDIPIEVCPISNQVLKLVSDLRNHPVATLMATGHPMVISSDDPAMFGAKGLSYDFYEVFMGIGGMKADLRTLKQLAMNSIKYSTLLESEKNTFMEIWKKRWDKFIADVATK
modifications: human ADA2 K371D, mature numbering
- binding to heparin-coated plates compared to WT ADA2 [1]: attenuated binding to heparin
- Average OD450, heparin binding ELISA ([1]; Set 1, 3 μM protein): 0.15
- Heparin Binding ELISA Average OD450 ([1]; single and S265N combination variants (Table 34)): 0.87
- Km ([2]; pH 6.5): 3.16 mM
- Vmax ([2]; pH 6.5): 42.98 µM/min
- kcat ([2]; pH 6.5): 84.27 s⁻¹
- Km ([2]; pH 7.6): 4.88 mM
- Vmax ([2]; pH 7.6): 28.25 µM/min
- kcat ([2]; pH 7.6): 55.39 s⁻¹
- kinetics properties compared to WT ([2]; pH 7.6 and pH 6.5): improved kinetics properties compared to WT
- Adenosine deaminase activity Δ [ADO]/min × (−100) ([3]; pH 5.5): 12.19
- Adenosine deaminase activity Δ [ADO]/min × (−100) ([3]; pH 6): 10.68
- Adenosine deaminase activity Δ [ADO]/min × (−100) ([3]; pH 6.5): 14.22
- Adenosine deaminase activity Δ [ADO]/min × (−100) ([3]; pH 6.75): 12.90
- Adenosine deaminase activity Δ [ADO]/min × (−100) ([3]; pH 7): 13.22
- Adenosine deaminase activity Δ [ADO]/min × (−100) ([3]; pH 7.25): 12.86
- Adenosine deaminase activity Δ [ADO]/min × (−100) ([3]; pH 7.4): 10.55
- Adenosine deaminase activity Δ [ADO]/min × (−100) ([3]; pH 7.75): 1.55
- Adenosine deaminase activity Δ [ADO]/min × (−100) ([3]; pH 8): 3.46
- AUC (mU * h)/mL [4]: 74,983 (mU * h)/mL
- Half life slow (t1/2) [4]: 3.8 h
- Percent increase in AUC compared to WT ADA2 [4]: 128%
- Percent increase in t1/2 compared to WT ADA2 [4]: 230%

B2: PEG-K374D: rHuADA2-K374D (SEQ ID NO:20) PEGylated on surface exposed lysines with linear PEG-20K (conjugate)
chain: IDETRAHLLLKEKMMRLGGRLVLNTKEELANERLMTLKIAEMKEAMRTLIFPPSMHFFQAKHLIERSQVFNILRMMPKGAALHLHDIGIVTMDWLVRNVTYRPHCHICFTPRGIMQFRFAHPTPRPSEKCSKWILLEDYRKRVQNVTEFDDSLLRNFTLVTQHPEVIYTNQNVVWSKFETIFFTISGLIHYAPVFRDYVFRSMQEFYEDNVLYMEIRARLLPVYELSGEHHDEEWSVKTYQEVAQKFVETHPEFIGIKIIYSDHRSKDVAVIAESIRMAMGLRIKFPTVVAGFDLVGHEDTGHSLHDYKEALMIPAKDGVKLPYFFHAGETDWQGTSIDRNILDALMLNTTRIGHGFALSKHPAVRTYSWDKDIPIEVCPISNQVLKLVSDLRNHPVATLMATGHPMVISSDDPAMFGAKGLSYDFYEVFMGIGGMKADLRTLKQLAMNSIKYSTLLESEKNTFMEIWKKRWDKFIADVATK
modifications: linear PEG-20K on surface lysines; human ADA2 K371D, mature numbering
- AUC (mU * h)/mL [4]: 2,725,000 (mU * h)/mL
- Half life slow (t1/2) [4]: 21.75 h
- Percent increase in AUC compared to WT ADA2 [4]: 8187%
- Percent increase in t1/2 compared to WT ADA2 [4]: 1791%
